Laboratory results as given in the supplement of paper PMC10567573.

B1: PLAGL1 (parent)
chain: EKPPSGTKEKKHQCDHCERCFYTR
B2: S100A14 (parent)
chain: KIANLGSCNDSKLEFRSFWELIGE

Variants of: B1
Assay: protein stability index of a GFP-peptide fusion (GPS, HEK-293T) (PSI 1-6); higher = more stable
Conditions: c terminus: a fixed tail appended
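Further: lentivirally expressed fusions sorted by FACS into six bins by GFP to DsRed ratio, PSI derived from sequencing read proportions per bin multiplied by bin number.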

Compared with P4H, P4I is higher in protein stability index: 3.56 for the first, 3.57 for the second.

First: P4T
Second: P4G
The protein stability index of the first is lower: 3.44 for the first, 3.99 for the second.

First: P4W
Second: P4A
The protein stability index of the first is lower: 2.96 for the first, 3.79 for the second.

Compared with P4S, H12C is higher in protein stability index: 3.99 for the first, 4.59 for the second.

First: H12P
Second: G6Q
The protein stability index of the first is lower: 2.2 for the first, 3.16 for the second.

Going from G6L to G6Y, the protein stability index falls from 3.92 to 2.92.

Going from F21P to F21A, the protein stability index rises from 3.75 to 4.06.

First: F21R
Second: P3V
The protein stability index of the first is higher: 4.15 for the first, 3.97 for the second.

First: P3H
Second: K8V
The protein stability index of the first is lower: 3.33 for the first, 3.9 for the second.

Compared with K8F, K8W is higher in protein stability index: 2.9 for the first, 3.35 for the second.

First: K8H
Second: K8A
The protein stability index of the first is higher: 3.88 for the first, 3.37 for the second.

Compared with K8M, K8L is lower in protein stability index: 4.27 for the first, 3.04 for the second.

Compared with T7V, T7S is lower in protein stability index: 4.06 for the first, 3.54 for the second.

Compared with T7W, T7G is higher in protein stability index: 3.17 for the first, 3.69 for the second.

Compared with T7D, T7N is lower in protein stability index: 3.77 for the first, 3.6 for the second.

First: T7R
Second: T7Q
The protein stability index of the first is lower: 3.44 for the first, 3.82 for the second.

First: H16G
Second: R19A
The protein stability index of the first is higher: 4.67 for the first, 4.31 for the second.

First: R19G
Second: R19C
The protein stability index of the first is lower: 3.24 for the first, 3.3 for the second.

Compared with R19N, K11Q is lower in protein stability index: 4.36 for the first, 4.28 for the second.

Going from K11E to K11A, the protein stability index falls from 4.6 to 3.73.

Going from K11M to K11V, the protein stability index falls from 4.04 to 3.86.

First: K11S
Second: C17R
The protein stability index of the first is higher: 3.79 for the first, 3.15 for the second.

Compared with C17Y, C17P is higher in protein stability index: 3.15 for the first, 4.33 for the second.

Compared with E1S, D15M is lower in protein stability index: 3.11 for the first, 2.63 for the second.

Going from D15N to D15F, the protein stability index falls from 3.23 to 2.79.

Compared with K2G, K2I is higher in protein stability index: 3.44 for the first, 3.72 for the second.

Going from K2E to C14E, the protein stability index rises from 3.9 to 4.84.

Compared with C14R, C14S is higher in protein stability index: 3.97 for the first, 4.02 for the second.

Going from C20I to C20Q, the protein stability index falls from 2.68 to 2.37.

Compared with C20K, C20N is lower in protein stability index: 3.58 for the first, 2.6 for the second.

First: R24C
Second: R24E
The protein stability index of the first is lower: 4.61 for the first, 4.67 for the second.

First: R24Q
Second: R24T
The protein stability index of the first is higher: 5.28 for the first, 4.93 for the second.

Compared with R24K, Y22W is lower in protein stability index: 4.74 for the first, 3.18 for the second.

First: Y22P
Second: Y22F
The protein stability index of the first is higher: 4.05 for the first, 3.35 for the second.

Compared with Y22N, E9K is lower in protein stability index: 4.22 for the first, 2.9 for the second.

Compared with E9M, T23L is higher in protein stability index: 2.85 for the first, 4.64 for the second.

First: T23Y
Second: T23C
The protein stability index of the first is lower: 3.83 for the first, 4.64 for the second.

Going from K10S to K10R, the protein stability index falls from 3.96 to 3.43.

First: S5F
Second: S5N
The protein stability index of the first is lower: 3.19 for the first, 3.79 for the second.

First: S5E
Second: E18V
The protein stability index of the first is lower: 3.72 for the first, 4.66 for the second.

Compared with E18P, Q13W is lower in protein stability index: 4.7 for the first, 2.8 for the second.

For Q13N, the protein stability index was 3.74.

Variants of: B2
Assay: as above
Conditions: c terminus: a fixed tail appended

First: I22P
Second: I22D
The protein stability index of the first is lower: 2.29 for the first, 2.65 for the second.

First: I22E
Second: I22Y
The protein stability index of the first is higher: 3.19 for the first, 2 for the second.

Going from I22N to I22L, the protein stability index falls from 2.61 to 1.94.

First: I22C
Second: I22Q
The protein stability index of the first is lower: 1.9 for the first, 2.24 for the second.

First: I22R
Second: I22F
The protein stability index of the first is lower: 1.98 for the first, 2.95 for the second.

Compared with I22A, I22H is lower in protein stability index: 2.59 for the first, 1.9 for the second.

Going from I22S to I22K, the protein stability index rises from 2.28 to 2.32.

Compared with I22W, I22V is higher in protein stability index: 1.67 for the first, 1.79 for the second.

Going from I22G to I22M, the protein stability index falls from 2.32 to 1.82.

First: I22T
Second: E24A
The protein stability index of the first is higher: 2.25 for the first, 2.15 for the second.

Going from E24L to E24N, the protein stability index rises from 1.05 to 2.17.

Compared with E24T, E24W is higher in protein stability index: 1.9 for the first, 2.1 for the second.

Compared with E24C, E24I is higher in protein stability index: 1.53 for the first, 2.86 for the second.

Going from E24D to E24Y, the protein stability index falls from 2.15 to 1.84.

Compared with E24S, E24Q is higher in protein stability index: 1.78 for the first, 2.11 for the second.

Compared with E24P, E24F is higher in protein stability index: 1.7 for the first, 1.88 for the second.

First: E24M
Second: E24R
The protein stability index of the first is higher: 2.27 for the first, 1.37 for the second.

Compared with E24H, E24K is lower in protein stability index: 2.8 for the first, 2.06 for the second.

Going from E24G to G23K, the protein stability index rises from 1.36 to 1.82.

Compared with G23I, G23C is lower in protein stability index: 1.86 for the first, 1.73 for the second.

First: G23P
Second: G23T
The protein stability index of the first is lower: 2.04 for the first, 2.28 for the second.

First: G23R
Second: G23H
The protein stability index of the first is lower: 1.45 for the first, 2.29 for the second.

Compared with G23F, G23Y is higher in protein stability index: 1.44 for the first, 1.75 for the second.

Going from G23E to G23A, the protein stability index falls from 2.15 to 1.89.

Compared with G23W, G23D is lower in protein stability index: 2.66 for the first, 1.75 for the second.

First: G23N
Second: G23L
The protein stability index of the first is higher: 2.21 for the first, 1.62 for the second.

Compared with G23S, G23Q is higher in protein stability index: 1.87 for the first, 2.19 for the second.

First: G23V
Second: G23M
The protein stability index of the first is lower: 2.18 for the first, 2.25 for the second.

Going from E20V to E20P, the protein stability index falls from 1.73 to 1.64.

First: E20R
Second: E20Y
The protein stability index of the first is lower: 2.45 for the first, 2.73 for the second.

Going from E20M to E20Q, the protein stability index falls from 3.34 to 1.62.

First: E20N
Second: E20S
The protein stability index of the first is higher: 2.29 for the first, 1.94 for the second.

First: E20T
Second: L21M
The protein stability index of the first is higher: 1.59 for the first, 1.23 for the second.

Going from L21P to L21Y, the protein stability index falls from 2.59 to 2.23.

Going from L21R to L21A, the protein stability index rises from 1.94 to 2.74.

First: L21W
Second: L21D
The protein stability index of the first is lower: 1.18 for the first, 2.57 for the second.

First: L21G
Second: L21T
The protein stability index of the first is higher: 2.33 for the first, 2 for the second.

L21K and L21S are the same in protein stability index: 1.86 for the first, 1.86 for the second.

Going from L21E to L21N, the protein stability index rises from 2.08 to 2.55.

Going from L21I to L21H, the protein stability index rises from 1.54 to 1.9.

Compared with L21Q, L21C is lower in protein stability index: 1.76 for the first, 1.62 for the second.

First: L21V
Second: L21F
The protein stability index of the first is lower: 1.63 for the first, 2.16 for the second.
